In patent publication US20110117099A1:

Biological target: type I Collagen (Sigma)
Test: solid phase assay, biotinylated rBSdrF titrated on collagen-coated wells

In the case of “purified recombinant B domain of SdrF (rBSdrF), N-terminal His tag (from UniProt Q9KI14 678-1128)”, the concentration at which maximum binding occurs is reported as 20 ng/mL.
